This data set concerns the molecule itself. In words: SEC.

Residue numbers refer to the chain shown, from its start. Names and notes keep the numbering of the source.

B1: mouse SAA3 F24S/M25S double mutant (natural protein, UniProt P04918 19-122, looked up)
chain: QRWVQSSKEAGQGSRDMWRAYSDMKKANWKNSDKYFHARGNYDAARRGPGGAWAAKVISDAREAVQKFTGHGAEDSRADQFANEWGRSGKDPNHFRPAGLPKRY
As to B1, the binding result is recorded as “binds”.

B2: mouse SAA3 W71S/V75S double mutant (natural protein, UniProt P04918 19-122, looked up)
chain: B1 chain with S6F, S7M, W53S, V57S
With B2, the binding result is “binds”.

These data come from paper PMC6754605 (Proceedings of the National Academy of Sciences of the …, 2019).
